Source: patent publication US20200079833A1 (AstraZeneca / MedImmune, published 2020)
Starred links: 1 amine or outer side, 2 acyl side, 3 side chain; linkers in the order of their positions; H or OH if unused. Non-standard residues stand in square brackets, D forms with d. Groups on a side chain read outwards from the residue. Primed or numbered codes have the meaning given here. No end group written: not given here. *: point of attachment. γGlu = O=C(O)[C@H](CCC(=O)[*:2])N[*:1]; Stearoyl = CCCCCCCCCCCCCCCCCC(=O)*; αMeF = C[C@](N)(Cc1ccccc1)C(=O)O; αMeK = C[C@](N)(CCCCN)C(=O)O; Lauroyl = CCCCCCCCCCCC(=O)*; αMeS = C[C@](N)(CO)C(=O)O; PEG2′ = not defined here; Aib = CC(C)(N)C(=O)O; Ahx = NCCCCCC(=O)O

T1: glucose-dependent insulinotropic peptide (gastric inhibitory polypeptide) receptor (GIPR) (human, UniProt P48546 22-466)
T1 sequence (looked up): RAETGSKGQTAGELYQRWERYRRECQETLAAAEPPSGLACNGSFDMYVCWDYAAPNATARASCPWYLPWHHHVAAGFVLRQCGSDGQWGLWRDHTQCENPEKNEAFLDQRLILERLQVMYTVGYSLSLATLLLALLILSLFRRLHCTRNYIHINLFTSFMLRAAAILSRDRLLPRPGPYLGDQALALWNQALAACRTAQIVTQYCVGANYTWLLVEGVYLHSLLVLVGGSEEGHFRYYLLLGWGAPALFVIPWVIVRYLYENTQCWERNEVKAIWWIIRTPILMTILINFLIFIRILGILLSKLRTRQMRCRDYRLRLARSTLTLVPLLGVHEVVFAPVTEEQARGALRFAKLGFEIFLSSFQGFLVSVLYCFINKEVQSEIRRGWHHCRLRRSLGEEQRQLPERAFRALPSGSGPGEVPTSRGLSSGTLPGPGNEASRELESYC

T2: glucose-dependent insulinotropic peptide (gastric inhibitory polypeptide) receptor (GIPR), primary cAMP assay … (human, UniProt P48546 22-466)
T2 sequence (looked up): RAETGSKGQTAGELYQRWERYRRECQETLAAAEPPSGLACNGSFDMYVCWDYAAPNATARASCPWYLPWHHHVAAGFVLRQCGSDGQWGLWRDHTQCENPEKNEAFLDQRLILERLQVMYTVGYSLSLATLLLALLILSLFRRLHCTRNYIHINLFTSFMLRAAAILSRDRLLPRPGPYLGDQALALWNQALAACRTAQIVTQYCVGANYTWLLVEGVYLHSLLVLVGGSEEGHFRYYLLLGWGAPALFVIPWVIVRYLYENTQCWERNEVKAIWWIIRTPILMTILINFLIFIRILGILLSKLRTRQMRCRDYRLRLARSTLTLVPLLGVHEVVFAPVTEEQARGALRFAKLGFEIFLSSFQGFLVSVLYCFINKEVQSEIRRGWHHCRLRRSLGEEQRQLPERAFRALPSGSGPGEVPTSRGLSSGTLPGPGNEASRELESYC


Columns and labels:
Assay in all cases: cell-based or functional assay
[1] = molecular target: T1, glucose-dependent insulinotropic …
glucagon receptor (GCGR) = glucagon receptor (GCGR) (human, UniProt P47871 26-477)
GLP-1 receptor (GLP-1R) = GLP-1 receptor (GLP-1R) (human, UniProt P43220 24-463)
[2] = molecular target: T2, glucose-dependent insulinotropic …
[3] = molecular target: GLP-1 receptor (GLP-1R), primary cAMP assay cell line (human, UniProt P43220 24-463)
[4] = molecular target: glucagon receptor (GCGR), primary cAMP assay cell line (human, UniProt P47871 26-477)
glucagon receptor (GCGR), primary cAMP assay cell line, sequence (P47871 26-477): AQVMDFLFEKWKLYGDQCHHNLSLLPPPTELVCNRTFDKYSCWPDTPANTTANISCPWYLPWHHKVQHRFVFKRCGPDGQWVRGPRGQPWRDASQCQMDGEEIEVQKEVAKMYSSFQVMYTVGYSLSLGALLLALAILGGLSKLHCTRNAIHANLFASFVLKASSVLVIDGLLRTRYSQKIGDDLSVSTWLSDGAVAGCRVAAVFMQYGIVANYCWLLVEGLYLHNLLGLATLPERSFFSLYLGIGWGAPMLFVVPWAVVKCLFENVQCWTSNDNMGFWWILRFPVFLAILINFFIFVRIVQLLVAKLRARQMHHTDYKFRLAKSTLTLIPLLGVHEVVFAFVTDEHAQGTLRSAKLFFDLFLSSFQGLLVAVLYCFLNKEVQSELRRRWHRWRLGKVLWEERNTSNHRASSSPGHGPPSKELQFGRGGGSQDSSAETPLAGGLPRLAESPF

glucagon receptor (GCGR), sequence (P47871 26-477): as above

Binder | Primary assay EC50 (cAMP), GIP-R, first run [1] | Primary assay EC50 (cAMP), GIP-R, second run [1] | Primary assay EC50 (cAMP), Gluc-R, first run (glucagon receptor (GCGR)) | Primary assay EC50 (cAMP), Gluc-R, second run (glucagon receptor (GCGR)) | Primary assay EC50 (cAMP), GLP-1R n1 (GLP-1 receptor (GLP-1R)) | Primary assay EC50 (cAMP), GLP-1R n2 (GLP-1 receptor (GLP-1R)) | Primary assay EC50 (cAMP), Mean pM GLP-1R (GLP-1 receptor (GLP-1R)) | cAMP Primary assay EC50, n1 [2] | cAMP Primary assay EC50, n2 [2] | cAMP Primary assay EC50, Mean pM GLP-1R [3] | cAMP Primary assay EC50, n1 [3] | cAMP Primary assay EC50, n2 [3] | cAMP Primary assay EC50, n1 [4] | cAMP Primary assay EC50, n2 [4]
H[Aib]EGS[αMeF]TSDV[αMeS]S[αMeF]LEGEAAK([γGlu-Stearoyl])E[αMeF]IA[αMeF]VV[αMeK]GG-NH2 (N-terminus assumed; SMILES CCCCCCCCCCCCCCCCCC(=O)N[C@@H](CCC(=O)NCCCC[C@H](NC(=O)[C@H](C)NC(=O)[C@H](C)NC(=O)[C@H](CCC(=O)O)NC(=O)CNC(=O)[C@H](CCC(=O)O)NC(=O)[C@H](CC(C)C)NC(=O)[C@](C)(Cc1ccccc1)NC(=O)[C@H](CO)NC(=O)[C@](C)(CO)NC(=O)[C@@H](NC(=O)[C@H](CC(=O)O)NC(=O)[C@H](CO)NC(=O)[C@@H](NC(=O)[C@](C)(Cc1ccccc1)NC(=O)[C@H](CO)NC(=O)CNC(=O)[C@H](CCC(=O)O)NC(=O)C(C)(C)NC(=O)[C@@H](N)Cc1c[nH]cn1)[C@@H](C)O)C(C)C)C(=O)N[C@@H](CCC(=O)O)C(=O)N[C@@](C)(Cc1ccccc1)C(=O)N[C@H](C(=O)N[C@@H](C)C(=O)N[C@@](C)(Cc1ccccc1)C(=O)N[C@H](C(=O)N[C@H](C(=O)N[C@@](C)(CCCCN)C(=O)NCC(=O)NCC(N)=O)C(C)C)C(C)C)[C@@H](C)CC)C(=O)O) [SEQ ID NO 155] | 28 nM | 28 nM | 28 nM | 28 nM | 0.29 nM | 0.19 nM | 238 pM | – | – | – | – | – | – | –
H[Aib]EGS[αMeF]TSDV[αMeS]SYK([PEG2′-PEG2′-γGlu-Lauroyl])EGEAA[αMeK]K([PEG2′-PEG2′-γGlu-Lauroyl])FIAFK([PEG2′-PEG2′-γGlu-Lauroyl])VEGG-NH2 [SEQ ID NO: 486] | – | – | – | – | – | – | – | 19.9 nM | 19.9 nM | 212 pM | 0.165 nM | 0.259 nM | 19.9 nM | 19.9 nM
H[Aib]EGS[αMeF]TSDV[αMeS]S[αMeF]LEGEAAK([PEG2′-PEG2′-Stearoyl])E[αMeF]IA[αMeF]VV[αMeK]GG-NH2 [SEQ ID NO 153] | 27 nM | 27 nM | 27 nM | 27 nM | 0.0079 nM | 0.005 nM | 6.4 pM | – | – | – | – | – | – | –
H[Aib]EGS[αMeF]TSDV[αMeS]S[αMeF]LEGEAAK([PEG2′-PEG2′-PEG2′-Stearoyl])E[αMeF]IA[αMeF]VV[αMeK]GG-NH2 [SEQ ID NO 154] | 26 nM | 26 nM | 26 nM | 26 nM | 0.0028 nM | 0.0023 nM | 2.5 pM | – | – | – | – | – | – | –
H[Aib]EGS[αMeF]TSDV[αMeS]SYK([PEG2′-PEG2′-γGlu-Lauroyl])EGEK([PEG2′-PEG2′-γGlu-Lauroyl])A[αMeK]EFIAFK([PEG2′-PEG2′-γGlu-Lauroyl])VEGG-NH2 [SEQ ID NO: 485] | – | – | – | – | – | – | – | 19.6 nM | 19.6 nM | 196 pM | 0.167 nM | 0.224 nM | 19.6 nM | 19.6 nM
H[Aib]EGS[αMeF]TSDV[αMeS]S[αMeF]LEGEAAK([γGlu-γGlu-γGlu-Stearoyl])E[αMeF]IA[αMeF]VV[αMeK]GG-NH2 (N-terminus assumed; SMILES CCCCCCCCCCCCCCCCCC(=O)N[C@@H](CCC(=O)N[C@@H](CCC(=O)N[C@@H](CCC(=O)NCCCC[C@H](NC(=O)[C@H](C)NC(=O)[C@H](C)NC(=O)[C@H](CCC(=O)O)NC(=O)CNC(=O)[C@H](CCC(=O)O)NC(=O)[C@H](CC(C)C)NC(=O)[C@](C)(Cc1ccccc1)NC(=O)[C@H](CO)NC(=O)[C@](C)(CO)NC(=O)[C@@H](NC(=O)[C@H](CC(=O)O)NC(=O)[C@H](CO)NC(=O)[C@@H](NC(=O)[C@](C)(Cc1ccccc1)NC(=O)[C@H](CO)NC(=O)CNC(=O)[C@H](CCC(=O)O)NC(=O)C(C)(C)NC(=O)[C@@H](N)Cc1c[nH]cn1)[C@@H](C)O)C(C)C)C(=O)N[C@@H](CCC(=O)O)C(=O)N[C@@](C)(Cc1ccccc1)C(=O)N[C@H](C(=O)N[C@@H](C)C(=O)N[C@@](C)(Cc1ccccc1)C(=O)N[C@H](C(=O)N[C@H](C(=O)N[C@@](C)(CCCCN)C(=O)NCC(=O)NCC(N)=O)C(C)C)C(C)C)[C@@H](C)CC)C(=O)O)C(=O)O)C(=O)O) [SEQ ID NO 157] | 26 nM | 26 nM | 26 nM | 26 nM | 0.24 nM | 0.22 nM | 227 pM | – | – | – | – | – | – | –
H[Aib]EGS[αMeF]TSDV[αMeS]S[αMeF]LEGEAAK([γGlu-γGlu-Stearoyl])E[αMeF]IA[αMeF]VV[αMeK]GG-NH2 (N-terminus assumed; SMILES CCCCCCCCCCCCCCCCCC(=O)N[C@@H](CCC(=O)N[C@@H](CCC(=O)NCCCC[C@H](NC(=O)[C@H](C)NC(=O)[C@H](C)NC(=O)[C@H](CCC(=O)O)NC(=O)CNC(=O)[C@H](CCC(=O)O)NC(=O)[C@H](CC(C)C)NC(=O)[C@](C)(Cc1ccccc1)NC(=O)[C@H](CO)NC(=O)[C@](C)(CO)NC(=O)[C@@H](NC(=O)[C@H](CC(=O)O)NC(=O)[C@H](CO)NC(=O)[C@@H](NC(=O)[C@](C)(Cc1ccccc1)NC(=O)[C@H](CO)NC(=O)CNC(=O)[C@H](CCC(=O)O)NC(=O)C(C)(C)NC(=O)[C@@H](N)Cc1c[nH]cn1)[C@@H](C)O)C(C)C)C(=O)N[C@@H](CCC(=O)O)C(=O)N[C@@](C)(Cc1ccccc1)C(=O)N[C@H](C(=O)N[C@@H](C)C(=O)N[C@@](C)(Cc1ccccc1)C(=O)N[C@H](C(=O)N[C@H](C(=O)N[C@@](C)(CCCCN)C(=O)NCC(=O)NCC(N)=O)C(C)C)C(C)C)[C@@H](C)CC)C(=O)O)C(=O)O) [SEQ ID NO 156] | 27 nM | 27 nM | 27 nM | 27 nM | 0.11 nM | 0.1 nM | 105 pM | – | – | – | – | – | – | –
H[Aib]EGS[αMeF]TSDV[αMeS]S[αMeF]LEGEAAK([Ahx-Stearoyl])E[αMeF]IA[αMeF]VV[αMeK]GG-NH2 (N-terminus assumed; SMILES CCCCCCCCCCCCCCCCCC(=O)NCCCCCC(=O)NCCCC[C@H](NC(=O)[C@H](C)NC(=O)[C@H](C)NC(=O)[C@H](CCC(=O)O)NC(=O)CNC(=O)[C@H](CCC(=O)O)NC(=O)[C@H](CC(C)C)NC(=O)[C@](C)(Cc1ccccc1)NC(=O)[C@H](CO)NC(=O)[C@](C)(CO)NC(=O)[C@@H](NC(=O)[C@H](CC(=O)O)NC(=O)[C@H](CO)NC(=O)[C@@H](NC(=O)[C@](C)(Cc1ccccc1)NC(=O)[C@H](CO)NC(=O)CNC(=O)[C@H](CCC(=O)O)NC(=O)C(C)(C)NC(=O)[C@@H](N)Cc1c[nH]cn1)[C@@H](C)O)C(C)C)C(=O)N[C@@H](CCC(=O)O)C(=O)N[C@@](C)(Cc1ccccc1)C(=O)N[C@H](C(=O)N[C@@H](C)C(=O)N[C@@](C)(Cc1ccccc1)C(=O)N[C@H](C(=O)N[C@H](C(=O)N[C@@](C)(CCCCN)C(=O)NCC(=O)NCC(N)=O)C(C)C)C(C)C)[C@@H](C)CC) [SEQ ID NO 158] | 28 nM | 28 nM | 28 nM | 28 nM | 0.14 nM | 0.16 nM | 148 pM | – | – | – | – | – | – | –
